# Measured values published in paper PMC5085863 (The Biochemical journal, 2016).
# Where two headings read alike, the source gives them in different places.
# How the values were obtained:
# Test in all cases: FRET or BRET
# [1] = target: the molecule itself
# [2] = target: the molecule itself; remark: listed apart in the source
# [3] = target: the molecule itself; remark: listed apart in the source
# [4] = target: the molecule itself; remark: listed apart in the source
# [5] = target: the molecule itself; remark: listed apart in the source
# [6] = target: the molecule itself; remark: listed apart in the source
# [7] = target: the molecule itself; remark: listed apart in the source
protein,measurement,setting,value
"opsin tagged with the fluorescent proteins mTurquoise or SYFP2 (opsin-mTurquoise and opsin-SYFP2, co-expressed) (receptor, UniProt P15409 1-348, looked up) MNGTEGPNFYVPFSNVTGVVRSPFEQPQYYLAEPWQFSMLAAYMFLLIVLGFPINFLTLYVTVQHKKLRTPLNYILLNLAVADLFMVFGGFTTTLYTSLHGYFVFGPTGCNLEGFFATLGGEIALWSLVVLAIERYVVVCKPMSNFRFGENHAIMGVVFTWIMALACAAPPLVGWSRYIPEGMQCSCGIDYYTLKPEVNNESFVIYMFVVHFTIPMIVIFFCYGQLVFTVKEAAAQQQESATTQKAEKEVTRMVIIMVIFFLICWLPYASVAFYIFTHQGSNFGPIFMTLPAFFAKSSSIYNPVIYIMLNKQFRNCMLTTLCCGKNPLGDDDASATASKTETSQVAPA",tetramer to dimer ratio (ρ),[1],1.08
same,tetramer to dimer ratio (ρ),[2],1.79
same,tetramer to dimer ratio (ρ),[3],0.401
same,tetramer to dimer ratio (ρ),[4],484
same,stoichiometry N,[5],2
same,KD tetramer to higher order oligomers,[6],> 1150 molecules/μm^2
same,stoichiometry N,[6],≥ 12
same,stoichiometry N,[7],4
